Consider two proteins from publication PMC6629641, “DNA translocation mechanism of the MCM complex and implications for replication initiation” (Nature Communications, 2019).

Data set [1] concerns the molecule itself. In words: crystal structure; SsoMCM-GGSGGS-ΔC with a 12-mer oligonucleotide, magnesium, ADP and beryllium fluoride; hanging drop, 18 °C, 50 mM MES pH 6.0, 100 mM NaCl, 20 mM MgCl2, 9% PEG 8000; 3.15 Å.
Data set [2] concerns the molecule itself. Put plainly: SEC; last gel-filtration step after removal of the SUMO tag and anion exchange; oligomer judged from the elution volume. A general note: SEC sorts molecules by how far they enter the pores of the column.

B1: SsoMCM-GGSGGS-ΔC (enzyme, Sulfolobus solfataricus, UniProt Q9UXG1 1-612, looked up)
chain: MEIPSKQIDYRDVFIEFLTTFKGNNNQNKYIERINELVAYRKKSLIIEFSDVLSFNENLAYEIINNTKIILPILEGALYDHILQLDPTYQRDIEKVHVRIVGIPRVIELRKIRSTDIGKLITIDGILVKVTPVKERIYKATYKHIHPDCMQEFEWPEDEEMPEVLEMPTICPKCGKPGQFRLIPEKTKLIDWQKAVIQERPEEVPSGQLPRQLEIILEDDLVDSARPGDRVKVTGILDIKQDSPVKRGSRAVFDIYMKVSSIEVSGGSGGSSEEDEKKIKDLAKDPWIRDRIISSIAPSIYGHWELKEALALALFGGVPKVLEDTRIRGDIHILIIGDPGTAKSQMLQFISRVAPRAVYTTGKGSTAAGLTAAVVREKGTGEYYLEAGALVLADGGIAVIDEIDKMRDEDRVAIHEAMEQQTVSIAKAGIVAKLNARAAVIAAGNPKFGRYISERPVSDNINLPPTILSRFDLIFILKDQPGEQDRELANYILDVHSGKSTKNIIDIDTLRKYIAYARKYVTPKITSEAKNLITDFFVEMRKKSSETPDSPILITPRQLEALIRISEAYAKMALKAEVTREDAERAINIMRLFLESVGVDMESGKIDID
notes: minichromosome maintenance (MCM) protein of Sulfolobus solfataricus, cut after amino acid 612 (the C-terminal HTH domain deleted); Homohexamer; crystallised with a 12-mer ssDNA, Mg2+, ADP and ADP-BeF3; also called nearly full-length SsoMCM; MCM hexamer; source: E. coli BL21(DE3)-RIPL, purified (Ni-NTA, size-exclusion, Ulp1 cleavage, anion exchange, gel filtration); not shown: His6, N-terminal, …
As for B1, the “stoichiometry N” value in data set [1] amounted to 6.

B2: wild-type full-length SsoMCM (enzyme, Sulfolobus solfataricus, UniProt Q9UXG1 1-686, looked up)
chain: MEIPSKQIDYRDVFIEFLTTFKGNNNQNKYIERINELVAYRKKSLIIEFSDVLSFNENLAYEIINNTKIILPILEGALYDHILQLDPTYQRDIEKVHVRIVGIPRVIELRKIRSTDIGKLITIDGILVKVTPVKERIYKATYKHIHPDCMQEFEWPEDEEMPEVLEMPTICPKCGKPGQFRLIPEKTKLIDWQKAVIQERPEEVPSGQLPRQLEIILEDDLVDSARPGDRVKVTGILDIKQDSPVKRGSRAVFDIYMKVSSIEVSQKVLDEVIISEEDEKKIKDLAKDPWIRDRIISSIAPSIYGHWELKEALALALFGGVPKVLEDTRIRGDIHILIIGDPGTAKSQMLQFISRVAPRAVYTTGKGSTAAGLTAAVVREKGTGEYYLEAGALVLADGGIAVIDEIDKMRDEDRVAIHEAMEQQTVSIAKAGIVAKLNARAAVIAAGNPKFGRYISERPVSDNINLPPTILSRFDLIFILKDQPGEQDRELANYILDVHSGKSTKNIIDIDTLRKYIAYARKYVTPKITSEAKNLITDFFVEMRKKSSETPDSPILITPRQLEALIRISEAYAKMALKAEVTREDAERAINIMRLFLESVGVDMESGKIDIDTIMTGKPKSAREKMMKIIEIIDSLAVSSECAKVKDILKEAQQVGIEKSNIEKLLTDMRKSGIIYEAKPECYKKV
notes: minichromosome maintenance (MCM) protein of Sulfolobus solfataricus, full length; also called pEE045.1; source: E. coli BL21(DE3)-RIPL, purified (Ni-NTA, size-exclusion, Ulp1 cleavage, anion exchange, gel filtration); not shown: His6, N-terminal, cleaved; SUMO, N-terminal, cleaved
As to B2, the “stoichiometry N” value in data set [2] came out at 6.

By stoichiometry N is commonly meant the number of molecules, sites or subunits per partner or assembly.
